The results in this text go back to PMC4164784, “4E-BPs require non-canonical 4E-binding motifs and a lateral surface of eIF4E to repress translation” (Nature Communications, 2014).

The target in experiment [1] is T1, Dm eIF4E (residues 69–248, WT) (Drosophila melanogaster, UniProt P48598).
T1 construct: The truncated His6-eIF4E (residues 69–248) that was used in the ITC experiments; His6 (N, cleaved yes); made in house; host or cells: E. coli BL21 Star (DE3)
T1 sequence (P48598 69-248 isoform P48598-2): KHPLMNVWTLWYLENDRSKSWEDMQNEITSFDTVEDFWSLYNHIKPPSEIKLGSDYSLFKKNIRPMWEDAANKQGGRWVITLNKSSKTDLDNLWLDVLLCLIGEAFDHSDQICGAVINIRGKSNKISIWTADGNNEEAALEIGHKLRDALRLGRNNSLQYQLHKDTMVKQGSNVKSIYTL
As to the kind of experiment: ITC, binding to eIF4E (WT, residues 69–248). The conditions noted are these: for Kd: VP-ITC, 20 mM Na-phosphate (pH 7.0), 150 mM NaCl, GB1-fused peptides (C+NC 10 μM, C 50 μM, L+NC 100 μM CUP or 200 μM Thor and 4E-T, eIF4G 20 μM) into eIF4E WT 1–20 μM, one-site model, each experiment repeated twice, nb = no binding; for Kd / Molar ratio / TΔS / ΔG / ΔH: 20 °C; for Molar ratio / TΔS / ΔG / ΔH: eIF4E WT (69–248), pH 7.0, nb = no binding; for entropic penalty (in words): bipartite regions. The protocol:
Unless indicated otherwise, all the proteins were expressed in E. coli BL21 Star (DE3) cells (Invitrogen) that were grown in LB medium overnight at 20 °C. The lysis buffers were supplemented with DNaseI (5 μg ml^−1), lysozyme (1 mg ml^−1) and protease inhibitor cocktail (Roche). The truncated His6-eIF4E (residues 69–248) that was used in the ITC experiments and in Figs 2c and 5b was purified in lysis buffer containing 50 mM HEPES (pH 7.2), 300 mM NaCl, 20 mM imidazole and 2 mM β-mercaptoethanol using Ni^2+-affinity chromatography (HisTrap HP 5 ml, GE Healthcare) and eluted with a gradient of 20–500 mM imidazole. After the cleavage of the His6-tag with HRV3C protease (homemade), the protein was further purified using a heparin column (HiTrap Heparin HP 5 ml, GE Healthcare), followed by size exclusion chromatography (Superdex 75 16/60, GE Healthcare) in 20 mM Na-phosphate (pH 7.0), 300 mM NaCl and 2 mM dithiothreitol (DTT).
For the ITC measurements and the competition assays shown in Figs 4 and 5d–g, the 4E-BP peptides corresponding to the canonical (C) motifs, the combined (C+NC) motifs or L+NC were expressed with an HRV3C cleavable N-terminal MBP-tag and a non-cleavable C-terminal GB1 domain. The cells were lysed by sonication in lysis buffer containing 50 mM HEPES (pH 7.2), 300 mM NaCl and 2 mM DTT. The proteins were purified from the cleared lysates using amylose resin (New England Biolabs) followed by the cleavage of the MBP tag with HRV3C protease overnight at 4 °C. The proteins were further purified by size exclusion chromatography (Superdex 75 16/60, GE Healthcare) in 20 mM Na-phosphate (pH 7.0), 300 mM NaCl and 2 mM DTT. For the eIF4G fragment (residues 578–650) the MBP was removed after cleavage with TEV protease through an additional anion exchange chromatography (HiTrap Q HP 5 ml, GE Healthcare) before the final gel filtration.
The ITC experiments were performed using a VP-ITC microcalorimeter (MicroCal) at 20 °C. The solution of eIF4E (residues 69–248, WT or mutant: 1–20 μM) in the calorimetric cell was titrated with tenfold concentrated solutions of GB1-stabilized peptides corresponding to 4E-BPs C+NC (10 μM), C (50 μM), L+NC (100 μM CUP, 200 μM Thor and 4E-T) or eIF4G (residues 578–650, 20 μM) that were dissolved in the same buffer (20 mM Na-phosphate (pH 7.0) and 150 mM NaCl). The titration experiments consisted of an initial injection of 2 μl followed by 28 injections of 10 μl at an interval of 240 s. Each binding experiment was repeated twice. The thermodynamic parameters were estimated using a one-site binding model (Origin version 7.0), whereby the datapoint of the first injection was removed for the analysis.
(d) minimal regions for binding to eIF4E (wild-type (WT), residues 69–248). The top panels represent the raw data (μcal sec−1) whereas the bottom panels show the integrated data (kcal mole−1 of injectant) of heat changes that were best-fitted using a one-site binding model. The thermodynamic parameters correspond to heat changes that were detected when 4E-BPs (10 µM) or eIF4G (20 µM) were injected into the calorimetric cell (1.4 mL) containing 1 µM (a,b,c) or 2 µM (d) eIF4E.
Supplementary Figure 4. Thermodynamic parameters for the interaction of eIF4E with 4E-BP peptides. (a–f) ITC profiles for the interaction of eIF4E (WT, residues 69-248) and CUP (a,d), Thor (b,e) and 4E-T (c,f) peptides containing only the canonical motifs (a–c) or the L+NC regions (d–f). The measurements were performed as described in Supplementary
Fig. 3. The solutions contained the peptides corresponding to the canonical motifs (50 µM) or the L+NC regions (100 µM for CUP and 200 µM for Thor and 4E-T). The eIF4E concentration in the calorimetric cell was 5 µM (for the C peptides), 10 µM (for CUP L+NC) and 20 µM (for Thor and 4E-T L+NC peptides).
(1 picture or pasted object on this page, not shown here)

Experiment [2] deals with endogenous eIF4E and HA-tagged 4E-BPs in S2 cells. As to the kind of experiment: Immunofluorescence localization in S2 cells. It counts as cell-based, Drosophila melanogaster. The conditions noted are these: −LMB; for localization of endogenous eIF4E (in words): S2 cells overexpressing 4E-BP or mutant; for localization of the 4E-BP (in words): S2 cells, steady-state.

No end group written: not given here.

Consider “4E-T C: 4E-T residues 9–21, canonical motif”, for which, in experiment [1], the Kd stood at 16 nM, the Molar ratio is 0.95±0.01, the TΔS was -8.16 kcal/mol and the ΔG is -10.45 kcal/mol. For the same substance, in experiment [1], the ΔH is -18.6 ± 0.7 kcal/mol. The “affinity of the 4E-T C peptide relative to CUP and Thor C peptides” value in experiment [1] (eIF4E WT, C motif peptides) is “approximately one and two orders of magnitude higher than those of the CUP and Thor peptides, respectively”. Also, in experiment [2], the “localization of endogenous eIF4E (in words)” value is on record as “the number of eIF4E-positive P-bodies was reduced” and the “localization of the 4E-BP (in words)” value was “still localized to P-bodies”.

On to “4E-T C+NC: 4E-T residues 9–44, eIF4E-binding region short, C-terminal GB1”, for which, in experiment [1] (eIF4E WT), the “entropic penalty (in words)” value is on record as “lower entropic penalties”. Further, in experiment [1], the TΔS was -11.7 kcal/mol and the ΔG is -11.11 kcal/mol. Also, in experiment [2], the “localization of endogenous eIF4E (in words)” value is “the number of eIF4E-positive P-bodies was reduced” and the “localization of the 4E-BP (in words)” value was “still localized to P-bodies”.

As to “Thor C+NC: Thor residues 50–83, eIF4E-binding region short, C-terminal GB1 (TKLIYERAFMKNLRGSPLSQTPPSNVPSCLLRGT-GB1; UniProt Q9XZ56 50-83, looked up, fragment)”, the “entropic penalty (in words)” value in experiment [1] (eIF4E WT) is listed as “lower entropic penalties”. Moreover, in experiment [1], the TΔS was -4.9 kcal/mol and the ΔG was -11.87 kcal/mol.

“CUP C+NC: CUP residues 325–376, eIF4E-binding region short, C-terminal GB1 (KSYTRSRLMDIRNGMFNALMHRSKESFVMPRIATCDDIELEGRLRRMNIWRT-GB1; UniProt Q9VMA3 325-376, looked up, fragment)”: in experiment [1], the Kd worked out at 9.1 nM, the Molar ratio came out at 1.05±0.02, the TΔS was -23.9 kcal/mol and the ΔG was -10.78 kcal/mol. In experiment [1], this substance showed a ΔH of -34.5 ± 0.35 kcal/mol. In experiment [1] (eIF4E WT), the “entropic penalty (in words)” value is listed as “highest entropic penalty”.

“Thor C: Thor residues 50–63, canonical motif”: the TΔS in experiment [1] was -2.24 kcal/mol.
